Experiments:
[1] = molecular target: T1, CD36 on the surface of mouse peritoneal exudate macrophages (mouse (endogenous in peritoneal exudate …, UniProt Q08857 1-472)); assay: cellular ELISA; 5 μg/ml rCD14 with 1 μg/ml S-LPS on adherent PEMs, 50 min at 37°C in FCS-RPMI; bound rCD14 detected with HRP-anti-Fc; settings: one partner purified
T1 construct: CD36, mouse, endogenous on the surface of peritoneal exudate macrophages; also called CD36 on PEMs; endogenous CD36; source: endogenous, on adherent thioglycollate-elicited peritoneal exudate macrophages of C57BL/6 mice
T1 sequence (Q08857 whole entry): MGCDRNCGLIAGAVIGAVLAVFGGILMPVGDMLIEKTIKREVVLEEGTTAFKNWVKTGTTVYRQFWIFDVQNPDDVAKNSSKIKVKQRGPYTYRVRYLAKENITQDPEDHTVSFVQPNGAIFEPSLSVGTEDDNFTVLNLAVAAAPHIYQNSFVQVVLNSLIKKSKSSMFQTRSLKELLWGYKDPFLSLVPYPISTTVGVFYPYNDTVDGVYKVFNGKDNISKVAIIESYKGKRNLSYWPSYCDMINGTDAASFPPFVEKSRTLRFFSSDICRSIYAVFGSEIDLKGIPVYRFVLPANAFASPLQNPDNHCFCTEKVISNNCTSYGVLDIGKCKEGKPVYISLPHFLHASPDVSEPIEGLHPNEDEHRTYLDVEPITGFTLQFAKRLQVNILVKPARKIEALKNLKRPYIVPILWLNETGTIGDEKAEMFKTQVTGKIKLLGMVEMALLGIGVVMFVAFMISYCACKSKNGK

[2] = molecular target: T1, CD36 on the surface of mouse peritoneal …; assay: cellular ELISA; rCD14 with 1 μg/ml S-LPS on adherent PEMs, incubation on ice (0°C); bound rCD14 detected with HRP-anti-Fc; settings: one partner purified

fold increase of binding with S-LPS over binding without LPS [1]: > 25 fold
fold higher binding on ice than at 37°C [2]: ~2 fold
B1: recombinant mouse CD14 tagged with the Fc fragment of human IgG1 (Fc fusion, UniProt P10810 16-336, looked up)
chain: SPAPPEPCELDEESCSCNFSDPKPDWSSAFNCLGAADVELYGGGRSLEYLLKRVDTEADLGQFTDIIKSLSLKRLTVRAARIPSRILFGALRVLGISGLQELTLENLEVTGTAPPPLLEATGPDLNILNLRNVSWATRDAWLAELQQWLKPGLKVLSIAQAHSLNFSCEQVRVFPALSTLDLSDNPELGERGLISALCPLKFPTLQVLALRNAGMETPSGVCSALAAARVQLQGLDLSHNSLRDAAGAPSCDWPSQLNSLNLSFTGLKQVPKGLPAKLSVLDLSYNRLDRNPSPDELPQVGNLSLKGNPFLDSESHSEKFN
notes: CD14, mouse, recombinant soluble receptor from R&D Systems; also called rCD14; source: bought: R&D Systems

From PMC4830570, “CD36 Differently Regulates Macrophage Responses to Smooth and Rough Lipopolysaccharide” (PLoS ONE, 2016)
